The source of these data is patent US20230183352A1 (published 2023).

Broadly, the EC50 is the concentration that produces a half-maximal response. The Kd is the constant that tells how readily two partners part at equilibrium. Usually koff stands for a measure of how fast the partners let go of each other. Usually kon stands for the rate constant with which the complex forms.

Assay [1] concerns the target T1, Claudin 18.2 (CLDN18.2), expressed on CHOS-CLDN 18.2 / HEK293-CLDN 18.2 / HCC827-CLDN 18.2 cells (human, UniProt P56856-2 1-261).
T1 construct: whole, on cells; The species is not repeated for the CHOS-CLDN 18.2 cells; also called claudin-18A2
The assay can be described thus: FACS, CHOS-CLDN18.2 cells, 5 µg/ml. (In general: A flow cytometer gives signals particle by particle.)

In assay [2] the target is T1, Claudin 18.2 (CLDN18.2), expressed on …. The assay can be described thus: FACS, CHOS-CLDN18.2 cells.
The target is the same in assay [3]. The assay can be described thus: FACS, CHOS-CLDN18.2 cells, 0.078 µg/ml.
The target is the same in assay [4]. The assay is described as follows: FACS, CHOS-CLDN18.2 cells, 0 µg/ml (background).
For assay [5] the target is unchanged. The assay is described as follows: FACS, CHOS-CLDN18.2 cells, 0.005 µg/ml.
Assay [6] has the same target. The assay can be described thus: FACS, MFI on CHOS-CLDN18.2 over MFI on CHOS-CLDN18.1, 10 µg/ml.
The target is the same in assay [7]. The assay can be described thus: FACS, CHOS-CLDN18.2 cells, 0.313 µg/ml.
The target is the same in assay [8]. The assay is described as follows: FACS, CHOS-CLDN18.2 cells, 10 µg/ml.
For assay [9] the target is unchanged. The assay can be described thus: FACS, CHOS-CLDN18.2 cells, 20 µg/ml.
For assay [10] the target is unchanged. The assay can be described thus: FACS, CHOS-CLDN18.2 cells, 1.250 µg/ml.
Assay [11] shares this target. The assay can be described thus: FACS, CHOS-CLDN18.2 cells, 0.020 µg/ml.
Assay [12] concerns the target T2, PD-L1 Protein, Human, Recombinant (His Tag) (human, UniProt Q9NZQ7 19-239).
T2 construct: Bought protein; also called QPP09.1; SinoBiologic 10084-H08H
The assay is described as follows: SPR Biacore T200, antibody captured, PD-L1 His as analyte, 1:1 binding. A general note: Surface plasmon resonance follows binding to a sensor surface in real time, without labels.

Assay [13] deals with T3, PD-L1 Protein, Cynomolgus, Recombinant (His Tag) (cynomolgus).
T3 construct: Bought protein; also called QPP10.1; SinoBiologic 90251-C08H
Described as above.

T2 sequence (Q9NZQ7 19-239 limits assumed): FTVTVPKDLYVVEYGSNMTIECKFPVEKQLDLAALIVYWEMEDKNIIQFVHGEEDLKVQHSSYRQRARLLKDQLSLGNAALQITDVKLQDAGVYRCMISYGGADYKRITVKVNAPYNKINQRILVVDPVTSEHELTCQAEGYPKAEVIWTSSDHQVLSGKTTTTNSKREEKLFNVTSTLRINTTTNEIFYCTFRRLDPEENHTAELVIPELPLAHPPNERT

B1: QP14641461 (antibody, human IgG1, kappa, V domains shown)
VH: EVQLVQSGAEVKKPGASVKVSCKASGYTFTSYIMHWVRQAPGQGLEWIGYINPYNDGTKYNEKFKGRVTLTRDKSTSTVYMELSSLRSEDTAVYYCARLGFTTRNAMDYWGQGTLVTVSS
VL: DIVMTQSPDSLAVSLGERATINCKSSQSLLNSGNQKNYLAWYQQKPGQPPKLLIYGASTRESGVPDRFTGSGSGTDFTLTISSLQAEDVAVYYCQNDHSYPFTFGQGTKLEIKR
notes: Humanized from QP207208
As to B1, the FACS reading in [1] amounted to 166000; in assay [3], 46300; in assay [4], 732; in assay [5] it was 5980; in assay [7], 97500; in assay [9], 99500. Moreover, the FACS reading in assay [10] is 160000; in [11], 19900. In addition, the EC50 in [2] is 0.165 µg/mL. In [2], the max was determined as 166000. Besides, the “CLDN18.2/CLDN18.1 (MFI ratio)” value in [6] was determined as 709. Also, the MFI in assay [8] is 721000.

B2: QP14651460 (antibody, human IgG1, kappa, V domains shown)
VH: EVQLVQSGAEVKKPGASVKVSCKASGYTFTSYIMHWVRQAPGQGLEWIGYINPYNDGTKYNEKFKGRVTLTSDKSTSTVYMELSSLRSEDTAVYYCARLGFTTRNAMDYWGQGTLVTVSS
VL: DIVMTQSPDSLAVSLGERATINCKSSQSLLNSGNQKNYLAWYQQKPGQPPKLLIYGASTRESGVPDRFSGSGSGTDFTLTISSLQAEDVAVYYCQNDHSYPFTFGQGTKLEIKR
notes: Humanized from QP207208
In the case of B2, the FACS reading is 189000 in assay [1]; 50300 in [3]; 732 in assay [4]; 7190 in assay [5]; 134000 in assay [7]; 174000 in assay [9]. Moreover, the FACS reading in [10] stood at 219000; in [11], 19600. In [2], this molecule displayed a 50% effective concentration (EC50) of 0.186 µg/mL. Further, the max in [2] was 189000. Besides, the “CLDN18.2/CLDN18.1 (MFI ratio)” value in assay [6] is 596. In assay [8], this molecule showed an MFI of 595000.

B3: QP14641460 (antibody, human IgG1, kappa, V domains shown)
VH: EVQLVQSGAEVKKPGASVKVSCKASGYTFTSYIMHWVRQAPGQGLEWIGYINPYNDGTKYNEKFKGRVTLTRDKSTSTVYMELSSLRSEDTAVYYCARLGFTTRNAMDYWGQGTLVTVSS
VL: DIVMTQSPDSLAVSLGERATINCKSSQSLLNSGNQKNYLAWYQQKPGQPPKLLIYGASTRESGVPDRFSGSGSGTDFTLTISSLQAEDVAVYYCQNDHSYPFTFGQGTKLEIKR
notes: Humanized from QP207208
Turning to B3, the FACS reading in [1] is 191000; in assay [3], 44300; in assay [4], 732; in [5] it was 6600; in assay [7] it was 151000; in assay [9] it was 114000. The FACS reading came to 146000 in assay [10] and 16200 in assay [11]. This molecule registered an EC50 in assay [2] of 0.0936 µg/mL. The max in assay [2] turned out to be 191000. The “CLDN18.2/CLDN18.1 (MFI ratio)” value in assay [6] came to 579. In assay [8], this molecule showed an MFI of 604000.

B4: QP14641462 (antibody, human IgG1, kappa, V domains shown)
VH: EVQLVQSGAEVKKPGASVKVSCKASGYTFTSYIMHWVRQAPGQGLEWIGYINPYNDGTKYNEKFKGRVTLTRDKSTSTVYMELSSLRSEDTAVYYCARLGFTTRNAMDYWGQGTLVTVSS
VL: DIVMTQSPDSLAVSLGERATINCKSSQSLLNSGNQKNYLAWYQQKPGQPPKLLIYGASTRESGVPDRFTGSGSGTDFTLTISSVQAEDVAVYYCQNDHSYPFTFGQGTKLEIKR
notes: Humanized from QP207208
B4: the FACS reading in [1] amounted to 224000; in assay [3], 29300; in assay [4], 732; in assay [5], 8450; in assay [7], 93600; in [9], 117000. Further, the results for the FACS reading in assay [10] and in assay [11] were 170000 and 15800, respectively. Moreover, the EC50 in [2] came to 0.306 µg/mL. The max in [2] is 224000. Also, in assay [6], the “CLDN18.2/CLDN18.1 (MFI ratio)” value came out at 718. In assay [8], this molecule yielded an MFI of 758000.

B5: QP207208 (antibody, human IgG1, V domains shown)
VH: EVQLQQSGPELVKPGASVKMSCKASGYTFTSYIMHWVKQKPGQGLEWIGYINPYNDGTKYNEKFKGKATLTSDKSSSTVYMELSSLTSEDSAVYCCARLGFTTRNAMDYWGQGTSVTVSS
VL: DIVMTQSPSSLSVSAGEKVTMNCKSSQSLLNSGNQKNYLAWYQQKPGQPPKLLIYGASTRESGVPDRFTGSGSGTDFTLTISSVQAEDLAVYYCQNDHSYPFTFGSGTKLEIK
notes: Chimeric; also called 51A3; mouse-derived chimeric antibody QP207208
Regarding B5, the FACS reading in assay [1] was 187000; in [3] it was 24700; in assay [4], 732; in assay [5], 5090; in [7], 90200; in [9], 117000. The FACS reading was found to be 149000 in [10] and 11500 in assay [11]. For the same molecule, in [2], a half-maximal effect (EC50) was put at 0.267 µg/mL. The same molecule had a max in assay [2] of 187000. Further, the “CLDN18.2/CLDN18.1 (MFI ratio)” value in assay [6] stood at 476. The molecule further showed an MFI in assay [8] of 627000.

B6: QP325 (Fc fusion)
chain: EVQLLESGGGLVQPGGSLRLSCAASGFTYGTYAMSWFRQAPGKGLEGVACIDIYGRTSYTDPVKGRFTISQDNSKNTLYLQMNSLRAEDTAVYYCAARDFGYCTASWVHEGFSRYWGQGTLVTVSS
notes: Humanization design of QP1166; VHH-Fc; also called 1166-V3; QD325; not shown: human IgG1-FC constant region fused to the C terminal of the VHH
Take B6: in assay [12], the Kd amounted to 10.7 nM, the koff is 0.004 s⁻¹ and the kon was 375000 M⁻¹ s⁻¹. In assay [13], the dissociation constant Kd worked out at 19.6 nM, the koff turned out to be 0.00416 s⁻¹ and the kon is 212000 M⁻¹ s⁻¹.

B7: QP1166 (Fc fusion)
chain: QVQLVESGGDSVQPGGSLRLSCAASGFTYGTYAMSWFRQAPGKEREGVACIDIYGRTSYTDPVKGRFTISQDNAKNTLYLQMNSLKPEDTAMYYCAARDFGYCTASWVHEGFSRYWGQGTQVTVSS
notes: Chimeric antibody before humanization; also called QD1166; nanobody QP1166; not shown: Fc part: called chimeric antibody, cloned in vector VH-FC-pQD
On to B7, for which, in assay [12], the Kd came to 2.63 nM, the koff came out at 0.00255 s⁻¹ and the kon stood at 968000 M⁻¹ s⁻¹. Further, in assay [13], the Kd was 5.6 nM, the koff was 0.00266 s⁻¹ and the on-rate constant (kon) was found to be 475000 M⁻¹ s⁻¹.

B8: QP1162 (Fc fusion)
chain: QVQLVESGGGSVQSGGSLRLSCAASGFTYGTYAMSWFRQAPGKEREGVACIDIYGRASYTDPVKGRFTISQDNAKNTLYLQMNSLKPEDTAMYYCAARDFGYCTASWVHEGFSRYWGQGTQVTVSS
notes: Chimeric antibody before humanization; also called QD1162; nanobody QP1162; not shown: Fc part: called chimeric antibody, cloned in vector VH-FC-pQD
Regarding B8, in [12], the dissociation constant Kd came out at 2.77 nM, the off-rate constant (koff) was 0.00379 s⁻¹ and the kon was determined as 1.37e+06 M⁻¹ s⁻¹. In [13], the dissociation constant Kd amounted to 5.6 nM, the koff was 0.00401 s⁻¹ and the on-rate (kon) is 715000 M⁻¹ s⁻¹.
